Measurements as given in patent US20200223889A1 (Novo Nordisk, published 2020).
Positions of bridges follow the written chain, without caps; N, C: chain ends. Non-standard residues stand in square brackets, D forms with d. Lys(CH2CO2H)2 = N[C@@H](CCCCN(CC(=O)O)CC(=O)O)C(=O)O; Phe(3,4-(OMe)2) = COc1ccc(C[C@H](N)C(=O)O)cc1OC; Ser(ΨH,HPro) = O=C(O)[C@@H]1COCN1; Hyp = O=C(O)[C@@H]1C[C@@H](O)CN1; Pen = CC(C)(S)[C@H](N)C(=O)O; Pip = O=C(O)[C@@H]1CCCCN1; Thz = O=C(O)[C@@H]1CSCN1; Aze = O=C(O)[C@@H]1CCN1

B1: Chem. 82 (peptide)
peptide: cyclo(C[Aze]H[dF]HWCAKKKW)
modifications: disulfide 1-7
SMILES: C[C@@H]1NC(=O)[C@@H]2CSSC[C@H](NC(=O)[C@H](Cc3c[nH]c4ccccc34)NC(=O)[C@H](CCCCN)NC(=O)[C@H](CCCCN)NC(=O)[C@H](CCCCN)NC1=O)C(=O)N1CC[C@H]1C(=O)N[C@@H](Cc1c[nH]cn1)C(=O)N[C@H](Cc1ccccc1)C(=O)N[C@@H](Cc1c[nH]cn1)C(=O)N[C@@H](Cc1c[nH]c3ccccc13)C(=O)N2
notes: also called c[c[Cys-AZE-His-D-Phe-His-Trp-Cys]-Ala-Lys-Lys-Lys-Trp]
B2: Chem. 2 (peptide)
peptide: cyclo(CGH[dF]RWCGH[dF]RW)
modifications: disulfide 1-7
SMILES: N=C(N)NCCC[C@@H]1NC(=O)[C@@H](Cc2ccccc2)NC(=O)[C@H](Cc2c[nH]cn2)NC(=O)CNC(=O)[C@@H]2CSSC[C@H](NC(=O)[C@H](Cc3c[nH]c4ccccc34)NC1=O)C(=O)NCC(=O)N[C@@H](Cc1c[nH]cn1)C(=O)N[C@H](Cc1ccccc1)C(=O)N[C@@H](CCCNC(=N)N)C(=O)N[C@@H](Cc1c[nH]c3ccccc13)C(=O)N2
notes: also called c[c[Cys-Gly-His-D-Phe-Arg-Trp-Cys]-Gly-His-D-Phe-Arg-Trp]
B3: Chem. 9 (peptide)
peptide: CXHFRWCXHFRW
modifications: Aib 2, 8; D-Phe 4, 10; disulphide Cys1-Cys7; head-to-tail amide Cys1-Trp12
notes: also called c[c[Cys-Aib-His-D-Phe-Arg-Trp-Cys]-Aib-His-D-Phe-Arg-Trp]
B4: Chem. 81 (peptide)
peptide: cyclo(C[Thz]H[dF]HWCAKKKW)
modifications: disulfide 1-7
SMILES: C[C@@H]1NC(=O)[C@@H]2CSSC[C@H](NC(=O)[C@H](Cc3c[nH]c4ccccc34)NC(=O)[C@H](CCCCN)NC(=O)[C@H](CCCCN)NC(=O)[C@H](CCCCN)NC1=O)C(=O)N1CSC[C@H]1C(=O)N[C@@H](Cc1c[nH]cn1)C(=O)N[C@H](Cc1ccccc1)C(=O)N[C@@H](Cc1c[nH]cn1)C(=O)N[C@@H](Cc1c[nH]c3ccccc13)C(=O)N2
notes: also called c[c[Cys-THAZ-His-D-Phe-His-Trp-Cys]-Ala-Lys-Lys-Lys-Trp]
B5: Chem. 91 (peptide)
peptide: cyclo(C[Thz]H[dF]HWC[Thz]H[dF]HW)
modifications: disulfide 1-7
SMILES: O=C1N[C@H]2CSSC[C@H](NC(=O)[C@H](Cc3c[nH]c4ccccc34)NC(=O)[C@H](Cc3c[nH]cn3)NC(=O)[C@@H](Cc3ccccc3)NC(=O)[C@H](Cc3c[nH]cn3)NC(=O)[C@@H]3CSCN3C2=O)C(=O)N2CSC[C@H]2C(=O)N[C@@H](Cc2c[nH]cn2)C(=O)N[C@H](Cc2ccccc2)C(=O)N[C@@H](Cc2c[nH]cn2)C(=O)N[C@H]1Cc1c[nH]c2ccccc12
notes: also called c[c[Cys-THAZ-His-D-Phe-His-Trp-Cys]-THAZ-His-D-Phe-His-Trp]
B6: Chem. 98 (peptide)
peptide: cyclo(C[dP]H[dF]HWCAKKKW)
modifications: disulfide 1-7
notes: also called c[c[Cys-D-Pro-His-D-Phe-His-Trp-Cys]-Ala-Lys-Lys-Lys-Trp]
B7: Chem. 94 (peptide)
peptide: cyclo(CPH[dF]R[Phe(3,4-(OMe)2)]CAKKKR)
modifications: disulfide 1-7
notes: also called c[c[Cys-Pro-His-D-Phe-Arg-3,4-DiMeO-Phe-Cys]-Ala-Lys-Lys-Lys-Arg]
B8: Chem. 103 (peptide)
peptide: cyclo(C[Ser(ΨH,HPro)]H[dF]HWCAKKKW)
modifications: disulfide 1-7
SMILES: C[C@@H]1NC(=O)[C@@H]2CSSC[C@H](NC(=O)[C@H](Cc3c[nH]c4ccccc34)NC(=O)[C@H](CCCCN)NC(=O)[C@H](CCCCN)NC(=O)[C@H](CCCCN)NC1=O)C(=O)N1COC[C@H]1C(=O)N[C@@H](Cc1c[nH]cn1)C(=O)N[C@H](Cc1ccccc1)C(=O)N[C@@H](Cc1c[nH]cn1)C(=O)N[C@@H](Cc1c[nH]c3ccccc13)C(=O)N2
notes: also called c[c[Cys-OXA-His-D-Phe-His-Trp-Cys]-Ala-Lys-Lys-Lys-Trp]
B9: Chem. 14 (peptide)
peptide: cyclo(CA[Hyp][dF]RWCA[Hyp][dF]RW)
modifications: disulfide 1-7
SMILES: C[C@@H]1NC(=O)[C@@H]2CSSC[C@H](NC(=O)[C@H](Cc3c[nH]c4ccccc34)NC(=O)[C@H](CCCNC(=N)N)NC(=O)[C@@H](Cc3ccccc3)NC(=O)[C@@H]3C[C@@H](O)CN3C1=O)C(=O)N[C@@H](C)C(=O)N1C[C@H](O)C[C@H]1C(=O)N[C@H](Cc1ccccc1)C(=O)N[C@@H](CCCNC(=N)N)C(=O)N[C@@H](Cc1c[nH]c3ccccc13)C(=O)N2
notes: also called c[c[Cys-Ala-Hyp-D-Phe-Arg-Trp-Cys]-Ala-Hyp-D-Phe-Arg-Trp]
B10: Chem. 93 (peptide)
peptide: cyclo(CPH[dF]HW[Pen]AKKKR)
modifications: disulfide 1-7
SMILES: C[C@@H]1NC(=O)[C@H]2NC(=O)[C@H](Cc3c[nH]c4ccccc34)NC(=O)[C@H](Cc3c[nH]cn3)NC(=O)[C@@H](Cc3ccccc3)NC(=O)[C@H](Cc3c[nH]cn3)NC(=O)[C@@H]3CCCN3C(=O)[C@H](CSSC2(C)C)NC(=O)[C@H](CCCNC(=N)N)NC(=O)[C@H](CCCCN)NC(=O)[C@H](CCCCN)NC(=O)[C@H](CCCCN)NC1=O
notes: also called c[c[Cys-Pro-His-D-Phe-His-Trp-Pen]-Ala-Lys-Lys-Lys-Arg]
B11: Chem. 105 (peptide)
peptide: cyclo(C[Thz]H[dF]HWCAEEAW)
modifications: disulfide 1-7
SMILES: C[C@@H]1NC(=O)[C@H](CCC(=O)O)NC(=O)[C@H](CCC(=O)O)NC(=O)[C@H](C)NC(=O)[C@@H]2CSSC[C@H](NC(=O)[C@H](Cc3c[nH]c4ccccc34)NC1=O)C(=O)N1CSC[C@H]1C(=O)N[C@@H](Cc1c[nH]cn1)C(=O)N[C@H](Cc1ccccc1)C(=O)N[C@@H](Cc1c[nH]cn1)C(=O)N[C@@H](Cc1c[nH]c3ccccc13)C(=O)N2
notes: also called c[c[Cys-THAZ-His-D-Phe-His-Trp-Cys]-Ala-Glu-Glu-Ala-Trp]
B12: Chem. 107 (peptide)
peptide: cyclo(C[Thz]H[dF]HWCADEAW)
modifications: disulfide 1-7
SMILES: C[C@@H]1NC(=O)[C@H](CCC(=O)O)NC(=O)[C@H](CC(=O)O)NC(=O)[C@H](C)NC(=O)[C@@H]2CSSC[C@H](NC(=O)[C@H](Cc3c[nH]c4ccccc34)NC1=O)C(=O)N1CSC[C@H]1C(=O)N[C@@H](Cc1c[nH]cn1)C(=O)N[C@H](Cc1ccccc1)C(=O)N[C@@H](Cc1c[nH]cn1)C(=O)N[C@@H](Cc1c[nH]c3ccccc13)C(=O)N2
notes: also called c[c[Cys-THAZ-His-D-Phe-His-Trp-Cys]-Ala-Asp-Glu-Ala-Trp]
B13: Chem. 108 (peptide)
peptide: cyclo(C[Thz]H[dF]HWCAEDAW)
modifications: disulfide 1-7
SMILES: C[C@@H]1NC(=O)[C@H](CC(=O)O)NC(=O)[C@H](CCC(=O)O)NC(=O)[C@H](C)NC(=O)[C@@H]2CSSC[C@H](NC(=O)[C@H](Cc3c[nH]c4ccccc34)NC1=O)C(=O)N1CSC[C@H]1C(=O)N[C@@H](Cc1c[nH]cn1)C(=O)N[C@H](Cc1ccccc1)C(=O)N[C@@H](Cc1c[nH]cn1)C(=O)N[C@@H](Cc1c[nH]c3ccccc13)C(=O)N2
notes: also called c[c[Cys-THAZ-His-D-Phe-His-Trp-Cys]-Ala-Glu-Asp-Ala-Trp]
B14: Chem. 106 (peptide)
peptide: cyclo(C[Thz]H[dF]HWCADDAW)
modifications: disulfide 1-7
SMILES: C[C@@H]1NC(=O)[C@H](CC(=O)O)NC(=O)[C@H](CC(=O)O)NC(=O)[C@H](C)NC(=O)[C@@H]2CSSC[C@H](NC(=O)[C@H](Cc3c[nH]c4ccccc34)NC1=O)C(=O)N1CSC[C@H]1C(=O)N[C@@H](Cc1c[nH]cn1)C(=O)N[C@H](Cc1ccccc1)C(=O)N[C@@H](Cc1c[nH]cn1)C(=O)N[C@@H](Cc1c[nH]c3ccccc13)C(=O)N2
notes: also called c[c[Cys-THAZ-His-D-Phe-His-Trp-Cys]-Ala-Asp-Asp-Ala-Trp]
B15: Chem. 104 (peptide)
peptide: cyclo(C[Thz]H[dF]HWCAA[Lys(CH2CO2H)2]AW)
modifications: disulfide 1-7
SMILES: C[C@@H]1NC(=O)[C@H](C)NC(=O)[C@@H]2CSSC[C@H](NC(=O)[C@H](Cc3c[nH]c4ccccc34)NC(=O)[C@H](C)NC(=O)[C@H](CCCCN(CC(=O)O)CC(=O)O)NC1=O)C(=O)N1CSC[C@H]1C(=O)N[C@@H](Cc1c[nH]cn1)C(=O)N[C@H](Cc1ccccc1)C(=O)N[C@@H](Cc1c[nH]cn1)C(=O)N[C@@H](Cc1c[nH]c3ccccc13)C(=O)N2
notes: also called c[c[Cys-THAZ-His-D-Phe-His-Trp-Cys]-Ala-Ala-Lys(CH2COOH)2-Ala-Trp]
B16: Chem. 83 (peptide)
peptide: cyclo(C[Pip]H[dF]HWCAKKKW)
modifications: disulfide 1-7
notes: also called c[c[Cys-PIP-His-D-Phe-His-Trp-Cys]-Ala-Lys-Lys-Lys-Trp]
B17: Chem. 15 (peptide)
peptide: cyclo(CAH[dF]KWCAH[dF]KW)
modifications: disulfide 1-7
SMILES: C[C@@H]1NC(=O)[C@@H]2CSSC[C@H](NC(=O)[C@H](Cc3c[nH]c4ccccc34)NC(=O)[C@H](CCCCN)NC(=O)[C@@H](Cc3ccccc3)NC(=O)[C@H](Cc3c[nH]cn3)NC1=O)C(=O)N[C@@H](C)C(=O)N[C@@H](Cc1c[nH]cn1)C(=O)N[C@H](Cc1ccccc1)C(=O)N[C@@H](CCCCN)C(=O)N[C@@H](Cc1c[nH]c3ccccc13)C(=O)N2
notes: also called c[c[Cys-Ala-His-D-Phe-Lys-Trp-Cys]-Ala-His-D-Phe-Lys-Trp]
B18: Chem. 92 (peptide)
peptide: cyclo([Pen]PH[dF]HWCAKKKR)
modifications: disulfide 1-7
SMILES: C[C@@H]1NC(=O)[C@@H]2CSSC(C)(C)[C@H](NC(=O)[C@H](CCCNC(=N)N)NC(=O)[C@H](CCCCN)NC(=O)[C@H](CCCCN)NC(=O)[C@H](CCCCN)NC1=O)C(=O)N1CCC[C@H]1C(=O)N[C@@H](Cc1c[nH]cn1)C(=O)N[C@H](Cc1ccccc1)C(=O)N[C@@H](Cc1c[nH]cn1)C(=O)N[C@@H](Cc1c[nH]c3ccccc13)C(=O)N2
notes: also called c[c[Pen-Pro-His-D-Phe-His-Trp-Cys]-Ala-Lys-Lys-Lys-Arg]

molecular target: T1, human melanocortin 4 receptor (human, UniProt P32245 1-332); assay: cell-based or functional assay
T1 sequence (P32245 whole entry): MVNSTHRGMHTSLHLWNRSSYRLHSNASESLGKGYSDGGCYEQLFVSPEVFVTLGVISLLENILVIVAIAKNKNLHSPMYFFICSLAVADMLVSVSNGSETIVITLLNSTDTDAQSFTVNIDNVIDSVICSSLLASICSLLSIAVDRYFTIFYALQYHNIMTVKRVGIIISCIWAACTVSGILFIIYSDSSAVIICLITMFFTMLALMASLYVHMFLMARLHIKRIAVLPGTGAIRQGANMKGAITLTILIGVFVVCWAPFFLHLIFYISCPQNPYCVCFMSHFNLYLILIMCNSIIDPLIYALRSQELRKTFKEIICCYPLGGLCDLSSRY

Binder	MC4R cAMP EC50 [nM]
B1	0.53
B2	0.01
B3	0.02
B4	0.07
B5	0.71
B6	2.7
B7	4.38
B8	0.05
B9	3.55
B10	0.04
B11	6.62
B12	10.6
B13	2.52
B14	10.6
B15	0.6
B16	2.15
B17	0.09
B18	0.13

molecular target: human melanocortin 1 receptor (human, UniProt Q01726 1-317); assay: cell-based or functional assay
Sequence (Q01726 whole entry): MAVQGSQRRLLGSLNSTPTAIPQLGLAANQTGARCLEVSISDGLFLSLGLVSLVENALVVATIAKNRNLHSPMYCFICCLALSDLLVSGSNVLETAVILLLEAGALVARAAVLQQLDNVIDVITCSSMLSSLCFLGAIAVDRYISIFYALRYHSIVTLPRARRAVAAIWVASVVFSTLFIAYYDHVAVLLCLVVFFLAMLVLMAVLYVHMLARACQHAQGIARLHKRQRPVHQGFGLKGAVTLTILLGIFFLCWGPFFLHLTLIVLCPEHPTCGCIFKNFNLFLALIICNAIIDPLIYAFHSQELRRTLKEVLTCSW

Binder	MC1R cAMP EC50 [nM]
B1	94.3
B2	1.54
B3	4.02
B4	67
B5	> 10
B6	> 55
B7	113
B8	> 70
B9	> 10
B10	18.2
B11	> 100
B12	> 100
B13	> 100
B14	> 100
B15	> 100
B16	> 10
B17	5.43
B18	47.1

molecular target: T1, human melanocortin 4 receptor; assay: competition with 125-NDP-α-MSH, BHK human MC4R membranes
Procedure, shortened: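 Competition binding used membranes from BHK cells stably expressing human MC4R with ¹²⁵I-NDP-α-MSH (apx. […] final), compound at 1 μM–0.001 nM. Incubation was 2 h at 25 °C in HEPES pH 7.0 buffer with CaCl₂, MgSO₄, EGTA, Tween 20 and 0.1% HSA or ovalbumin. Filter-bound radioactivity was fitted by non-linear regression.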

Binder	Ki [nM]
B1	0.07
B2	0.07
B3	0.06
B4	0.03
B5	0.51
B6	0.6
B7	0.25
B8	0.06
B9	30.2
B10	0.03
B11	43
B12	39.1
B13	23.3
B14	42.8
B15	8.87
B16	0.17
B17	0.12
B18	0.04
